{"source": "paper PMC10361663", "key": {"Importin β": {"biological_target": "Importin β (UniProt Q14974)", "assay": "anti-GFP co-IP, Western blot", "conditions": "reference: eGFP-HURP wild type; sites S627"}, "Kif5B": {"biological_target": "Kif5B (UniProt P33176)", "assay": "anti-GFP co-IP, Western blot", "conditions": "reference: eGFP-HURP wild type; sites S627"}}, "data": [{"substance": "HURP 1-846 (from UniProt Q15398) eGFP-HURP S627A", "values": [{"measurement": "binding against the reference", "setting": "Importin β", "value": "lost"}, {"measurement": "binding against the reference", "setting": "Kif5B", "value": "lost"}]}]}
